The results in this text go back to article PMC9896449.

Experiment [1] deals with BiShAb0201 (ShAb02 VNAR - (GGGGS)5 - ShAb01 VNAR - human IgG1 Fc) (nurse shark (Ginglymostoma cirratum)). The experiment is described as follows: BLI. On the technique in general: Biolayer interferometry detects binding as a change in optical thickness at a sensor tip.
The target of experiment [2] is ShAb01H02K (knob-in-hole heterodimer of ShAb01-Fc and ShAb02-Fc) (nurse shark (Ginglymostoma cirratum)). The experiment can be described thus: BLI.

Consider “SARS-CoV-2 RBD B.1.1.7, Alpha (N501Y) (from UniProt P0DTC2 331-527) (domain or fragment)”, for which, in experiment [1], the dissociation constant (Kd) (usually a measure of binding affinity in units of concentration) was found to be 1.8 nM; the off-rate (koff) (as a rule, the first-order rate constant of dissociation) was 0.00037 s⁻¹; the association rate constant (kon) – broadly, the second-order rate constant of association – was determined as 207000 M⁻¹ s⁻¹. Further, in experiment [2], the Kd is 1.5 nM, the koff was found to be 0.000513 s⁻¹ and the kon is 341000 M⁻¹ s⁻¹.
In experiment [1], “SARS-CoV-2 RBD B.1.351, Beta (K417N, E484K, N501Y) (from UniProt P0DTC2 331-527) (domain or fragment)” had a dissociation constant Kd of 2.1 nM, a dissociation rate constant (koff) of 0.000436 s⁻¹ and an on-rate (kon) of 206000 M⁻¹ s⁻¹. In experiment [2], this substance yielded an equilibrium dissociation constant (Kd) of 1.8 nM, a koff of 0.000538 s⁻¹ and an association rate constant (kon) of 294000 M⁻¹ s⁻¹.
In experiment [1], “SARS-CoV-2 RBD B.1.427/429, Epsilon (L452R) (from UniProt P0DTC2 331-527) (domain or fragment)” came in with a dissociation constant (Kd) of 1.2 nM, an off-rate (koff) of 0.000133 s⁻¹ and a kon of 109000 M⁻¹ s⁻¹. Moreover, in experiment [2], the Kd amounted to 0.08 nM, the koff is 1.21e-05 s⁻¹ and the kon was found to be 156000 M⁻¹ s⁻¹.
In experiment [1], “SARS-CoV-2 RBD B.1.525, Eta, Iota (E484K) (from UniProt P0DTC2 331-527) (domain or fragment)” displayed a Kd of 2 nM, a koff of 0.000415 s⁻¹ and a kon of 210000 M⁻¹ s⁻¹. In addition, in experiment [2], the Kd is 1.6 nM, the koff stood at 0.000511 s⁻¹ and the kon is 310000 M⁻¹ s⁻¹.
Take “SARS-CoV-2 RBD B.1.617, Kappa (L452R, E484Q) (from UniProt P0DTC2 331-527) (domain or fragment)”: in experiment [1], the Kd came to 4.4 nM, the off-rate (koff) was found to be 0.000238 s⁻¹ and the on-rate constant (kon) is 53600 M⁻¹ s⁻¹. For the same substance, in experiment [2], the Kd came to 2.2 nM, the koff came to 0.000326 s⁻¹ and the on-rate constant (kon) is 151000 M⁻¹ s⁻¹.
Turning to “SARS-CoV-2 RBD B.1.617.2, Delta (L452R, T478K) (from UniProt P0DTC2 331-527) (domain or fragment)”, in experiment [1], the Kd is 0.72 nM, the koff is 4.1e-05 s⁻¹ and the association rate constant (kon) was 57000 M⁻¹ s⁻¹. Moreover, in experiment [2], the dissociation constant (Kd) is < 0.001 nM, the off-rate constant (koff) is < 1e-07 s⁻¹ and the kon was 90000 M⁻¹ s⁻¹.
In the case of “SARS-CoV-2 RBD E484K, N501Y (from UniProt P0DTC2 331-527) (domain or fragment)”, in experiment [1], the Kd was 2.3 nM, the dissociation rate constant (koff) came to 0.000412 s⁻¹ and the on-rate constant (kon) was found to be 177000 M⁻¹ s⁻¹. In experiment [2], this substance registered a dissociation constant Kd of 1.9 nM, an off-rate constant (koff) of 0.000512 s⁻¹ and a kon of 277000 M⁻¹ s⁻¹.
“SARS-CoV-2 RBD K417N (from UniProt P0DTC2 331-527) (domain or fragment)”: in experiment [1], the equilibrium dissociation constant (Kd) amounted to 1.7 nM, the dissociation rate constant (koff) stood at 0.000352 s⁻¹ and the on-rate (kon) stood at 211000 M⁻¹ s⁻¹. In experiment [2], this substance came in with a dissociation constant (Kd) of 1.3 nM, an off-rate constant (koff) of 0.000457 s⁻¹ and a kon of 353000 M⁻¹ s⁻¹.
Turning to “SARS-CoV-2 RBD P.1, Gamma (K417T, E484K, N501Y) (from UniProt P0DTC2 331-527) (domain or fragment)”, in experiment [1], the Kd came to 6.5 nM, the koff stood at 0.000508 s⁻¹ and the kon was 78000 M⁻¹ s⁻¹. In experiment [2], the Kd turned out to be 4.2 nM, the koff was 0.000305 s⁻¹ and the kon stood at 73500 M⁻¹ s⁻¹.
